Substitutions are numbered along the chain they refer to.
T1: hAgr2 (human, UniProt O95994)
T1 construct: panel antigen of the specificity ELISA
T1 sequence (antigen, looked up): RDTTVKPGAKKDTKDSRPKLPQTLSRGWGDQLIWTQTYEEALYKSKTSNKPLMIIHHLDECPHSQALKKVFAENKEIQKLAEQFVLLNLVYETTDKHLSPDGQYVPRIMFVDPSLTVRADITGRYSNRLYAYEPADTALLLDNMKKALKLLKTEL

T2: hFGFR4 (human, UniProt P22455)
T2 construct: panel antigen of the specificity ELISA
T2 sequence (antigen, looked up): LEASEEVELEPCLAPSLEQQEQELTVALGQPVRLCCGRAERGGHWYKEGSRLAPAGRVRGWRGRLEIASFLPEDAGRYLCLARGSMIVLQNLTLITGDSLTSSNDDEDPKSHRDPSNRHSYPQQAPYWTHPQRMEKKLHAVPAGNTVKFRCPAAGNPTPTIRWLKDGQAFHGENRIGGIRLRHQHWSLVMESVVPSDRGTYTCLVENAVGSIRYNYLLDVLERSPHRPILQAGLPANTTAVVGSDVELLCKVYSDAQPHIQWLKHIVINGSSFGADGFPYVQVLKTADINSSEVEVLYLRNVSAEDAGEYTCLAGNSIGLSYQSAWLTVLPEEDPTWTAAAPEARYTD

T3: hGITR (human, UniProt Q9Y5U5)
T3 construct: panel antigen of the specificity ELISA
T3 sequence (antigen, looked up): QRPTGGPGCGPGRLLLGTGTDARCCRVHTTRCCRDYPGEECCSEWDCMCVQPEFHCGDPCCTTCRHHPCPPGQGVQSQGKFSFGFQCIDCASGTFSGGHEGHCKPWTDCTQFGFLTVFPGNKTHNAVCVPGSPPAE

T4: hβ-Klotho (human, UniProt Q86Z14)
T4 construct: panel antigen of the specificity ELISA
T4 sequence (antigen, looked up): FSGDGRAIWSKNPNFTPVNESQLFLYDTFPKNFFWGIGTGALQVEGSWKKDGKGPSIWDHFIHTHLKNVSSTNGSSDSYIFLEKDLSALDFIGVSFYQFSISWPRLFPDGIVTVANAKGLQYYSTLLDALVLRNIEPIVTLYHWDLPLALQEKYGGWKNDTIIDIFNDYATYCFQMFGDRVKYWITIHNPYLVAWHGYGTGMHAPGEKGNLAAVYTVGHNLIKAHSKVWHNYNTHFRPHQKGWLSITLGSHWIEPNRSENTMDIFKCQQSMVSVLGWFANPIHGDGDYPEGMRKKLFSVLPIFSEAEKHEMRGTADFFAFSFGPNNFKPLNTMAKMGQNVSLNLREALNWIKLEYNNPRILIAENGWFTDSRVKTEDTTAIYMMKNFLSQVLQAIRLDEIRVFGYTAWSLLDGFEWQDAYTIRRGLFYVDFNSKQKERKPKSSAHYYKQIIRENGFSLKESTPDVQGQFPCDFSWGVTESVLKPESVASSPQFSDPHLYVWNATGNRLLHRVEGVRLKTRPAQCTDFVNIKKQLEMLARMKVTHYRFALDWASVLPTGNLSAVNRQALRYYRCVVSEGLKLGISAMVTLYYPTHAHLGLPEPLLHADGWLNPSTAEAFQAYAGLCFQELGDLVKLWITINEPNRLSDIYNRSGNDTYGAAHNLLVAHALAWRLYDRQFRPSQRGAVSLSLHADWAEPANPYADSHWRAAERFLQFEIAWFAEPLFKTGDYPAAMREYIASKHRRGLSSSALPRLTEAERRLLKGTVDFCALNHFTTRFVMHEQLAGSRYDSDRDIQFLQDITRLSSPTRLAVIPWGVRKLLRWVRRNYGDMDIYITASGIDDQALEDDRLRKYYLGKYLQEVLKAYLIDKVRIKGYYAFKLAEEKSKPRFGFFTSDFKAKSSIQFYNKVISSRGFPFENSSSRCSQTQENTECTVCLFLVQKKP

T5: hNotch-3 NRR (human, UniProt Q9UM47)
T5 construct: panel antigen of the specificity ELISA
T5 sequence (antigen, looked up): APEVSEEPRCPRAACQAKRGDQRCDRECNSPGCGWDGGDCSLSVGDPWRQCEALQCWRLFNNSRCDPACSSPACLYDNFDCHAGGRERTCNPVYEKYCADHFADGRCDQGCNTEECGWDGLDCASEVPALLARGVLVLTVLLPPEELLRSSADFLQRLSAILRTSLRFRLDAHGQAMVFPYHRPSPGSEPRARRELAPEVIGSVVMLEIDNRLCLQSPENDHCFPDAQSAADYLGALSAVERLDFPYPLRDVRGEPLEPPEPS

B1: CDRH1-variant Fab SR079 (Fab, V domains shown)
VH: QVQLVQSGAEVKKPGASVKVSCKASGYTFSTMYMSWVRQAPGQGLEWMGRIDPANGHTNYAQKFQGRVTMTRDTSISTAYMELSRLTSDDTAVYYCARSYYYYAMDYWGQGTLVTVSS
VL: EIVMTQSPATLSVSPGERATLSCRASQSVSSSHVAWYQQKPGQAPRLLIYGVFRRATGIPDRFSGSGSGTDFTLTIGRLEPEDFAVYYCLQWSSDPPTFGQGTKLEIK
notes: also called SR079 (humaneered)
B2: NVP-LGT209 (antibody, human IgG1)
heavy: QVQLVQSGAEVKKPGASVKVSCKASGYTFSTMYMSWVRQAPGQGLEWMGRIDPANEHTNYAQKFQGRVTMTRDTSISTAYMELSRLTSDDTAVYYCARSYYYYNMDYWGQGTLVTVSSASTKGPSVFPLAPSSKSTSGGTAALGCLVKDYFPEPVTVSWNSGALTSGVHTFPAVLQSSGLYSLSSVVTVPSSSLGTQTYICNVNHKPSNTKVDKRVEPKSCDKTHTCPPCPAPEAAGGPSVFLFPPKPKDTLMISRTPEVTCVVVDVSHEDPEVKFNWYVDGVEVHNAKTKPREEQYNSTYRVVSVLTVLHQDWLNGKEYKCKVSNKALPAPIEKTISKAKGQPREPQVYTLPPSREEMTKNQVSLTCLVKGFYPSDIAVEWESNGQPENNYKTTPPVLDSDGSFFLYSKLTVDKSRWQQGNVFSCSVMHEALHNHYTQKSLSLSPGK
light: QIVLTQSPATLSVSPGERATLSCRASQSVSYMHWYQQKPGQAPRLLIYGVFRRATGIPDRFSGSGSGTDFTLTIGRLEPEDFAVYYCLQWSSDPPTFGQGTKLEIKRTVAAPSVFIFPPSDEQLKSGTASVVCLLNNFYPREAKVQWKVDNALQSGNSQESVTEQDSKDSTYSLSSTLTLSKADYEKHKVYACEVTHQGLSSPVTKSFNRGEC
notes: Silent human IgG1 kappa made in 293 Freestyle cells; also called pJG04 (Vh) + pJG10 (Vk)
B3: NVP-LGT210 (antibody, human IgG1)
heavy: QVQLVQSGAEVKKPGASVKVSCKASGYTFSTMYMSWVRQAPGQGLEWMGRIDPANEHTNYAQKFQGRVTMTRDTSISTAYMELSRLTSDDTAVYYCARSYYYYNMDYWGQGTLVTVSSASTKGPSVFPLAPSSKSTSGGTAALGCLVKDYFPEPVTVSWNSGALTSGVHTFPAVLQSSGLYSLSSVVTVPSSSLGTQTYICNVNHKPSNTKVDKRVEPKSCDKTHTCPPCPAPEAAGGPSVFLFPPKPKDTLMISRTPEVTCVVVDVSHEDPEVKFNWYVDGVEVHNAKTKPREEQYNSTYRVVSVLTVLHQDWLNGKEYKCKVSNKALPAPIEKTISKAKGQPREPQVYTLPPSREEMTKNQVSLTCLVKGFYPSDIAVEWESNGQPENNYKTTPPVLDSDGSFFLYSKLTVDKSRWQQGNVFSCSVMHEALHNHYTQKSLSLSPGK
light: B2 light with Q1E, L4M
notes: Silent human IgG1 kappa; also called pJG04 (Vh) + pJG01 (Vk)

How the values were obtained:
[1] = molecular target: T6, recombinant human Pcsk9 (aa 31-692) with C-terminal his6 tag (human, UniProt Q8NBP7 31-692); test: ForteBio Octet, purified Fab
T6 construct: In the TR-FRET assay it carried a fluorophore (hPcsk9-AF); also called hPCSK9; hPcsk9

[2] = molecular target: T7, mouse Pcsk9 with C-terminal his6 tag (mouse, UniProt Q80W65 35-694, limits assumed); test: not told in the legend
T7 construct: also called murine PCSK9

[3] = molecular target: T6, recombinant human Pcsk9 (aa 31-692) …; test: Solution Equilibrium Titration (SET), MSD read-out
Method: The binding kinetics of IgGs and Fab fragments were analyzed using a Solution Equilibrium Titration (“SET”) assay. Briefly, serial dilutions of hPCSK9 were added to 60 pM IgG or Fab and incubated overnight. A 96-well Standard Bind microtiter plate (Meso Scale Discovery) was coated with 1 μg/ml hPCSK9 and incubated overnight, washed with PBS/0.05% (w/v) Tween 20, blocked with PBS/5% (w/v) BSA, and washed again. The antibody-antigen preparation was added to the PCSK9-coated Standard Bind plate and incubated for 30 min at room temperature. After three additional washing steps, Sulfo-Tag-labeled goat-anti-human-detection antibody (R32AJ-5, Meso Scale Discovery) was added and incubated one hour at room temperature. After washing the plate three times, Read Buffer (Meso Scale Discovery) was added and electrochemiluminescence (ECL) signals were measured by a Sector Imager 6000 (Meso Scale Discovery). ECL data were processed with the excel add-in XLfit 4.3.2 (ID Business Solutions) using the fitting model applicable for antibodies described in Piehler, et al., (1997) J Immunol Methods 201:189-206.

[4] = molecular target: T1, hAgr2; test: specificity ELISA on coated antigen (88 ng per well), antibody at 2 µg/mL, ABS650
Method: (§1) For specificity ELISAs on purified human and mouse IgGs, a 384-well plate was coated with a panel of purified human or mouse antigens at 88 ng per well and incubated overnight at 4° C. The plate was blocked and washed as described above, then 22 μL of purified mouse or human anti-PCSK9 antibody diluted to 2 μg/mL in PBS was added to each well. The plate was incubated for 1 hr at 37° C. then washed with PBST. Anti-mouse Fc antibody (Jackson ImmunoResearch Labs #115-035-071) or anti-human kappa antibody (Sigma #A7164) conjugated to HRP was diluted 1:5000 in PBS (25 μL) and added to each well. The plate was incubated for 1 hr at room temperature, then washed and developed as described above.
(§2) In order to test whether the antigen specificity of the parental mouse antibody LFU720 was retained in the final Humaneered™ IgGs, LGT209, LGT210 and LGT211, binding of the antibodies to a panel of human and mouse antigens (as well as human PCSK9) was tested in an ELISA assay.

[5] = molecular target: T8, hTrkB (human, UniProt Q16620); test: as above
T8 construct: panel antigen of the specificity ELISA
Method: as §1, §2

[6] = molecular target: T9, hDDR1 (human, UniProt Q08345); test: as above
T9 construct: panel antigen of the specificity ELISA
Method: as §1, §2

[7] = molecular target: T2, hFGFR4; test: as above
Method: as §1, §2

[8] = molecular target: T3, hGITR; test: as above
Method: as §1, §2

[9] = molecular target: T10, hIL-12RB1 (human, UniProt P42701); test: as above
T10 construct: panel antigen of the specificity ELISA
Method: as §1, §2

[10] = molecular target: T4, hβ-Klotho; test: as above
Method: as §1, §2

[11] = molecular target: T5, hNotch-3 NRR; test: as above
Method: as §1, §2

[12] = molecular target: T11, hRspo-2 (human, UniProt Q6UXX9); test: as above
T11 construct: panel antigen of the specificity ELISA
Method: as §1, §2

T6 sequence (Q8NBP7 other isoform, or with tags, fused parts or gaps limits assumed, form in doubt): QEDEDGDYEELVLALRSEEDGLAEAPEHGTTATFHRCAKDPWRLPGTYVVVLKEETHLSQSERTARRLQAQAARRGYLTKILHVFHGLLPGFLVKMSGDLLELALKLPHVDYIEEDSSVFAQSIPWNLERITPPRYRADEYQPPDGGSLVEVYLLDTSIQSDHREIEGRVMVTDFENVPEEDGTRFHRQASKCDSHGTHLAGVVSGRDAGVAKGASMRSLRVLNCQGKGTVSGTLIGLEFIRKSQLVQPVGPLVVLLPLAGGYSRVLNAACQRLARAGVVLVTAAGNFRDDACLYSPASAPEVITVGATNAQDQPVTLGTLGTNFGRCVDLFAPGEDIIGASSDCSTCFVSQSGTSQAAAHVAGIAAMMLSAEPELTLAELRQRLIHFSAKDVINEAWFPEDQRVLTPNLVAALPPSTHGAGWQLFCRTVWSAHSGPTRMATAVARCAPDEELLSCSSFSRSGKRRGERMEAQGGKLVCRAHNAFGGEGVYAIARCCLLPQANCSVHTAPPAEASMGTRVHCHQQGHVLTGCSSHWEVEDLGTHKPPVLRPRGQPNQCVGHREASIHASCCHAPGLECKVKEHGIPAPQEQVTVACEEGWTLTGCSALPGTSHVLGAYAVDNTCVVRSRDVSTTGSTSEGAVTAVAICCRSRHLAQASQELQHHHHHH
T7 sequence (Q80W65 other isoform, or with tags, fused parts or gaps limits assumed): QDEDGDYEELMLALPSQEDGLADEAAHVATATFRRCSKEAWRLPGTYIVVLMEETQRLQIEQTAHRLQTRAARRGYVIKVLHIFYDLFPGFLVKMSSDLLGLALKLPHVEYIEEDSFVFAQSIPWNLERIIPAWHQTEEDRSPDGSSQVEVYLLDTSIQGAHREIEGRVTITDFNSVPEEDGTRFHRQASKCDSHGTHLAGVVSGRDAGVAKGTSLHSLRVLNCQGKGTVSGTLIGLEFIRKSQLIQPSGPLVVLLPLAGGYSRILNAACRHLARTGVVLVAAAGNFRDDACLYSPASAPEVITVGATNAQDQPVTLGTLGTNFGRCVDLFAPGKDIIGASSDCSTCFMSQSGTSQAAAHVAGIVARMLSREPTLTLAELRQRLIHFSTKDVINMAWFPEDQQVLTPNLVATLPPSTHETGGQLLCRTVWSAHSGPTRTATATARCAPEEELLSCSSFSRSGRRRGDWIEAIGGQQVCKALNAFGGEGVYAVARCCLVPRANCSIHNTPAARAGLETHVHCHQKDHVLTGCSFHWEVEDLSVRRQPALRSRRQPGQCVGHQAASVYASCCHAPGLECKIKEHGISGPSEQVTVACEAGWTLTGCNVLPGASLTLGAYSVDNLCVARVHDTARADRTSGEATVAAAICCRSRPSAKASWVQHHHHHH
T11 sequence (Q6UXX9 22-243 limits assumed): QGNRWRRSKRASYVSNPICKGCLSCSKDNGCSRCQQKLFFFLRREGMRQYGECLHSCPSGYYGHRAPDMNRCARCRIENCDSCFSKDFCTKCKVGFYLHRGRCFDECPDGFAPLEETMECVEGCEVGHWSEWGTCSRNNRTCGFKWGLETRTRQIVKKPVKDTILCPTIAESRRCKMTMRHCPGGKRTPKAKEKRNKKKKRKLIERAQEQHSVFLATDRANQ
T9 sequence (Q08345 21-416 limits assumed): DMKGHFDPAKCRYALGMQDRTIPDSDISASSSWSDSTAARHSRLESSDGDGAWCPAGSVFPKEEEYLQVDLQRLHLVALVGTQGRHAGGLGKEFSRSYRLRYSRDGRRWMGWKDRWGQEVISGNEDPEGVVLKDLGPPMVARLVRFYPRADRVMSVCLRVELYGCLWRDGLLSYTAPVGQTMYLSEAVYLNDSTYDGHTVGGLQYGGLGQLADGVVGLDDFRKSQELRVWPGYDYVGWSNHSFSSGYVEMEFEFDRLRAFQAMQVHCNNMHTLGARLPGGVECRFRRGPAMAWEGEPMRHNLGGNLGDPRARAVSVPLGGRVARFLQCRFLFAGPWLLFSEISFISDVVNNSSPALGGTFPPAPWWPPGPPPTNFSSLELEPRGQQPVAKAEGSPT
T8 sequence (Q16620 32-430 limits assumed): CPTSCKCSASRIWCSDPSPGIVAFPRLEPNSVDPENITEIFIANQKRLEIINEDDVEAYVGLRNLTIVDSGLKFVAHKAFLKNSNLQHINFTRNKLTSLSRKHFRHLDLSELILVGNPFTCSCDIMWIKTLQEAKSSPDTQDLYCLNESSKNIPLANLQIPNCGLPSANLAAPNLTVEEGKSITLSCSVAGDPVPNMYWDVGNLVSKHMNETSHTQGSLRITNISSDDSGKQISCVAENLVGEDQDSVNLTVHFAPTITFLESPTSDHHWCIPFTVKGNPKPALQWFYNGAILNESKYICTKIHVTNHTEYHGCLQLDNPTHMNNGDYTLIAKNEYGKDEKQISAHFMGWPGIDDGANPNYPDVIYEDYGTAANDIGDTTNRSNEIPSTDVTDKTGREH

Row | Binder | Kd [1] [pM] | binding result [2] | Kd [3] [pM] | binding result [4] | binding result [5] | binding result [6] | binding result [7] | binding result [8] | binding result [9] | binding result [10] | binding result [11] | binding result [12]
1 | B1 | 54200 | – | – | – | – | – | – | – | – | – | – | –
2 | B2 | – | no binding | 190 | no binding (tested: 2 µg/mL) | no binding (tested: 2 µg/mL) | no binding (tested: 2 µg/mL) | no binding (tested: 2 µg/mL) | no binding (tested: 2 µg/mL) | no binding (tested: 2 µg/mL) | no binding (tested: 2 µg/mL) | no binding (tested: 2 µg/mL) | no binding (tested: 2 µg/mL)
3 | B3 | – | no binding | 150 | no binding (tested: 2 µg/mL) | no binding (tested: 2 µg/mL) | no binding (tested: 2 µg/mL) | no binding (tested: 2 µg/mL) | no binding (tested: 2 µg/mL) | no binding (tested: 2 µg/mL) | no binding (tested: 2 µg/mL) | no binding (tested: 2 µg/mL) | no binding (tested: 2 µg/mL)
